Reference: PMC3057972, “BAG3 Directly Interacts with Mutated alphaB-Crystallin to Suppress Its Aggregation and Toxicity” (PLoS ONE, 2011)
Substitutions are numbered along the chain they refer to. Names may count otherwise.

B1: purified αB-crystallin wild type (from E. coli) (natural protein, human, UniProt P02511 1-175, looked up)
chain: MDIAIHHPWIRRPFFPFHSPSRLFDQFFGEHLLESDLFPTSTSLSPFYLRPPSFLRAPSWFDTGLSEMRLEKDRFSVNLDVKHFSPEELKVKVLGDVIEVHGKHEERQDEHGFISREFHRKYRIPADVDPLTITSSLSSDGVLTVNGPRKQVSGPERTIPITREEKPAVTAAPKK
notes: αB-crystallin, human, wild type; probably made as a GST fusion from pGEX-6P-1 with the GST removed (it is pulled down by GST-BAG3 on GSH beads); also called WT; source: E. coli, purified
B2: GST-αB-crystallin wild type (natural protein, human, UniProt P02511 1-175, looked up)
chain: B1 chain
notes: αB-crystallin, human, wild type, cDNA subcloned into pGEX-6P-1; also called GST-fused αB-crystallin wild type (WT); GST fusion αB-crystallin; source: E. coli BL21, purified (glutathione-Sepharose beads)
B3: GST-αB-crystallin R120G (natural protein, human, UniProt P02511 1-175, looked up)
chain: B1 chain with R120G
notes: αB-crystallin, human, mutant R120G found in myofibrillar myopathy patients, cDNA subcloned into pGEX-6P-1; also called GST R120GαB-crystallin; GST-fused αB-crystallin mutant (R120G); source: E. coli BL21, purified (glutathione-Sepharose beads)
B4: purified αB-crystallin R120G (from E. coli) (natural protein, human, UniProt P02511 1-175, looked up)
chain: B1 chain with R120G
notes: αB-crystallin, human, mutant R120G found in myofibrillar myopathy patients; probably made as a GST fusion from pGEX-6P-1 with the GST removed; also called R120G αB-crystallin; mutant (R120G); source: E. coli, purified
B5: peptide corresponding to aa 200–213 of BAG3 (peptide, UniProt O95817 200-213, looked up)
peptide: QLPRGYISIPVIHE
notes: BAG3, human, amino acids 200–213; source: peptide, 'generated'
B6: peptide corresponding to aa 87–101 of BAG3 (peptide, UniProt O95817 87-101, looked up)
peptide: PQLRPGYIPIPVLHE
notes: BAG3, human, amino acids 87–101; source: peptide, 'generated'

Tests used:
Conditions in all cases: both partners purified
[1] = biological target: T1, GST-BAG3 (human, UniProt O95817 1-575); assay: pull-down; competition: purified GST-BAG3 incubated with purified αB-crystallin in the presence or absence of peptides aa 87–101 or 200–213 of BAG3; precipitated with GSH beads; immunoblot with anti-αB-crystallin antibody
T1 construct: BAG3, human, cDNA subcloned into pGEX-6P-1; also called GST-fused BAG3; GST protein fused to BAG3; source: E. coli BL21, purified (glutathione-Sepharose beads)
T1 sequence (O95817 whole entry, the tested form may be a part): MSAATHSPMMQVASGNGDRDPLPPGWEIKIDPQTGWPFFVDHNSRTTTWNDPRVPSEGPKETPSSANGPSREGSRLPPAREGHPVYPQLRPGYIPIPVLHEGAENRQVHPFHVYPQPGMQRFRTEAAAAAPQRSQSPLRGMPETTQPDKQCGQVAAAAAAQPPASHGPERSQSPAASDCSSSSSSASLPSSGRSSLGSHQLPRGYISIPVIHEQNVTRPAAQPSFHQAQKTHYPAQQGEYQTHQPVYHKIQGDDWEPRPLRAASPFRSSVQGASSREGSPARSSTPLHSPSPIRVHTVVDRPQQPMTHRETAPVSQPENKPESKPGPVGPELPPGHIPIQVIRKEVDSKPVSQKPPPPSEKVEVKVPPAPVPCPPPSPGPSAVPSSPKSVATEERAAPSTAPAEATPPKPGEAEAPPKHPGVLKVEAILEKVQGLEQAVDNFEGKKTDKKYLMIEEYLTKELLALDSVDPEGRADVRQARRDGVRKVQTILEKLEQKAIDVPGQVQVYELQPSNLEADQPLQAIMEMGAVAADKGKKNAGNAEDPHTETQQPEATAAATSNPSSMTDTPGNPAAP

[2] = biological target: T2, purified BAG3 (from E. coli) (human, UniProt O95817 1-575); assay: pull-down; purified GST-fused αB-crystallin (WT or R120G) mixed with purified BAG3, pulled down with glutathione sepharose beads; immunoblot with anti-BAG3 antibody
T2 construct: BAG3, human; probably made as GST-BAG3 from pGEX-6P-1 with the GST removed (it is pulled down by GST-αB-crystallin on glutathione beads); source: E. coli BL21, purified
T2 sequence (O95817 whole entry, the tested form may be a part): as above

[3] = biological target: T1, GST-BAG3; assay: pull-down; purified GST-BAG3 incubated with purified αB-crystallin in immunoprecipitation buffer, precipitated with glutathione-Sepharose beads; immunoblot with anti-αB-crystallin antibody
[4] = biological target: B1; assay: pull-down; competition: purified GST-BAG3 incubated with purified αB-crystallin in the presence or absence of peptides aa 87–101 or 200–213 of BAG3; precipitated with GSH beads; immunoblot with anti-αB-crystallin antibody

binding result [2] | binding result [4] | Binder | also measured
– | – | B1 | binding result [1]: binds
binds | – | B2 | –
binds | – | B3 | –
– | – | B4 | binding result [3]: binds
– | binds | B5 | –
– | binds | B6 | –
